Measured values published in patent US9879094B2, “Nucleic acid molecules encoding for BACE1 antibodies” (Genentech, Inc., priority 2010, dated 2018).
Several values for one entry are separate records, joined by “and”; a condition that tells them apart may be missing. Equal entries are not always repeated. Entries after “also recorded” stand apart in the source; their conditions may differ.

Experiments:
mouse cortical neurons = test: Antibody internalization in primary neurons; assay type: cell-based
Protocol: BACE1 is known to be expressed intracellularly, particularly in the Golgi. To ascertain whether or not YW412.8.31 interacts with BACE1 in an intracellular environment, internalization studies were performed. One set of neuronal cultures was prepared from E13.5 dorsal root ganglia (DRG) explants, and a second set of neuronal cultures was prepared from E16.5 dissociated cortical neurons from BACE1+/+ or BACE1−/− mice and cultured for 24 or 72 hours, respectively, at 37° C. Media containing 0.5 μM YW412.8.31 anti-BACE1 antibody was added to the cultures for time periods varying from 30 minutes to 2 hours, and incubated at either 4° C. or 37° C. Unbound antibody was washed out thoroughly with PBS after treatment. […] Bound antibody was detected using a secondary Alexa 568-conjugated anti-Human IgG1 antibody (Molecular Probes) according to the manufacturer's directions.
Additionally, mouse cortical neurons were cultured in the presence of YW412.8.31 anti-BACE1 antibody or a control IgG for 10 minutes or 3 hours, after which the antibody was detected by immunostaining Neuronal cultures were prepared from E15.5 dissociated cortical neurons, and cultured for 14 DIV. […] Bound antibody was detected using an Alexa 568-conjugated anti-Human IgG1 secondary antibody (Molecular Probes). […]

[1] = system: Aβ1-40 in wild-type C57Bl/6J mice; test: Wild-type C57Bl/6J mice, IP dosing, Aβ1-40 levels; assay type: in vivo, mouse
Protocol: Additional experiments with wild-type C57Bl/6J mice were performed in which 100 mg/kg of YW412.8.31, or a control IgG, was administered systemically. Levels of Aβ1-40 in both the plasma and forebrain of treated animals four hours after a single intraperitoneal (IP) injection were determined. Blood was collected from animals by cardiac puncture to isolate plasma.
Following PBS perfusion, the brain was harvested and forebrain from one hemibrain was prepared in PK buffer (1% NP-40 in PBS, with Roche complete protease inhibitors) whereas forebrain from the other hemibrain was homogenized in 5M GuHCL, 50 mM Tris pH 8.0, and further diluted in Casein Blocking Buffer (0.25% casein/0.05% sodium azide, 20 μg/ml aprotinin/5 mM EDTA, pH 8.0/10 μg/ml leupeptin in PBS) for Aβ1-40 analysis.
Additional experiments were performed in order to determine the effect of elevated brain antibody levels through repeated dosing. YW412.8.31 antibody, or control IgG, was administered at 30 or 100 mg/kg IP every 4 days for a total of 3 doses. In this study the levels of Aβ1-40 in both the plasma and forebrain of treated animals 4 hours post last dose were measured. Again, ˜50% reduction in plasma Aβ1-40 levels following multi-dosing at both 30 and 100 mg/kg was observed (FIG. 22, panel B). […] YW412.8.31 antibody concentrations in serum were 480±210 and 1500±440 μg/mL, and concentrations in brain were 0.9±0.6 μg/g (5.9±4.3 nM) and 3.0±1.6 μg/g (20±10 nM) following administration at 30 and 100 mg/kg given every 4 days, respectively.

[2] = Antibody concentration in serum and brain of wild-type mice; assay type: in vivo, mouse
Protocol: Total anti-BACE1 antibody concentrations in mouse serum and brain samples were measured as follows. Antibody concentrations in mouse serum and brain samples were measured using an enzyme-linked immunosorbent assay (ELISA). NUNC 384 well Maxisorp immunoplates (Neptune, N.J.) were coated with F(ab′)2 fragment of donkey anti-human IgG, Fc fragment specific polyclonal antibody (Jackson ImmunoResearch, West Grove, Pa.) overnight at 4° C. Plates were blocked with phosphate-buffered saline (PBS) containing 0.5% bovine serum albumin (BSA) for 1 hour at room temperature the next day. Each antibody (Control IgG and anti-BACE1) was used as a standard to quantify the respective antibody concentrations. After washing plates with PBS containing 0.05% Tween 20 using a microplate washer (Bio-Tek Instruments, Inc., Winooski, Vt.), standards and samples diluted in PBS containing 0.5% BSA, 0.35 M NaCl, 0.25% CHAPS, 5 mM EDTA, 0.05% Tween 20 and 15 ppm Proclin were incubated on plates for 2 hours at room temperature with mild agitation. Bound antibody was detected with horseradish peroxidase conjugated F(ab′)2 goat anti-human IgG, Fc specific polyclonal antibody (Jackson ImmunoResearch). Finally, plates were developed using the substrate 3,3′,5,5′-tetramethyl benzidine (TMB) (KPL, Inc., Gaithersburg, Md.). Absorbance was measured at a wavelength of 450 nm with a reference of 630 nm on a Multiskan Ascent reader (Thermo Scientific, Hudson, N.H.). Concentrations were determined from the standard curve using a four-parameter non-linear regression program.

[3] = system: E13.5 dorsal root ganglia neurons; test: Aβ40 production in DRG neurons; assay type: cell-based, mouse; conditions: highest concentrations
Protocol: Similar studies were also performed in dorsal root ganglia, cortical neurons and hippocampal neurons isolated from mice. Briefly, dissociated neuronal cultures were prepared from E13.5 dorsal root ganglia (DRG), E16.5 cortical neurons and E16.5 hippocampal neurons. Neurons were grown for five days in vitro. Fresh media containing YW412.8.31 anti-BACE antibody or control IgG1 was incubated with the neurons for 24 hours. Media was harvested and assayed for the presence of Aβ40 using the MSD® Rodent/Human (4G8) A1340 Ultrasensitive kit according to the Manufacturer's instructions. Aβ40 values were normalized for cell viability, as determined using the CellTiter-Glo Luminescent Cell Viability Assay (Promega). The experiment was performed at least three times, and each point was repeated in duplicate. Data was plotted using a four-parameter non-linear regression curve-fitting program (Kaleidagraph, Synergy Software).

[4] = 30 mg/kg IP every 4 days, 3 doses
[5] = 100 mg/kg IP every 4 days, 3 doses

B1: YW412.8.31: affinity matured form of YW412.8 anti-BACE1 antibody (antibody, V domains shown)
VH: EVQLVESGGGLVQPGGSLRLSCAASGFTFLGYGIHWVRQAPGKGLEWVGWISPAGGSTDYADSVKGRFTISADTSKNTAYLQMNSLRAEDTAVYYCARGPFSPWVMDYWGQGTLVTVSS
VL: DIQMTQSPSSLSASVGDRVTITCRASQDVSTAVAWYQQKPGKAPKLLIYSASFLYSGVPSRFSGSGSGTDFTLTISSLQPEDFATYYCQQFPTYLPTFGQGTKVEIK
Mouse cortical neurons; 1 μM, 10 minutes to 3 hours, 37° C.
  localization of antibody signal: localized intracellularly
Mouse cortical neurons; TfR, VAMP4, LAMP1 co-staining
  co-localization with vesicular compartment markers: co-localized with markers for early endosomes and TGN, but not lysosomes
[1]; 30 mg/kg IP, 3 doses every 4 days
  reduction of forebrain Aβ1-40: no reduction; also recorded: not reduced
[1]; 100 mg/kg IP, 3 doses every 4 days
  reduction of forebrain Aβ1-40: 42%
[1]; 100 mg/kg single IP, 4 hours
  change in forebrain Aβ1-40: no change; also recorded: not reduced
  reduction of plasma Aβ1-40: ~50% and 48%
[1]; 30 and 100 mg/kg IP, 3 doses every 4 days, 4 hours after last dose
  reduction of plasma Aβ1-40: ~50% and 50-53%
[2]; [4]
  concentration in brain: 0.9±0.6 μg/g and 5.9±4.3 nM
  concentration in serum: 480 ± 210 µg/mL
[2]; [5]
  concentration in brain: 3.0±1.6 μg/g and 20±10 nM
  concentration in serum: 1500 ± 440 µg/mL
[2]; 100 mg/kg single IP, 4 hours
  brain concentration as share of concentration in serum: ~0.07%
  concentration in brain: 0.7±0.4 μg/g and 4.7±2.7 nM
  concentration in serum: 1040±140 μg/mL and 6.9±0.9 μM
[3]
  reduction in Aβ40 production: ~50%
